Patent US20250043004A1 (Janssen / Centocor, published 2025)

Tests used:
[1] = target: T1, T cell receptor Vβ17 on human T cells (human); assay: flow cytometry, human pan T cells, donor 1; antibody has no CD28 arm
T1 construct: whole, on cells; Vβ17+ fraction (about 5%) of human pan T cells, αβ-enriched T cells or M1-stimulated T cells; also called TCR Vβ17; Vb17

[2] = target: T2, BCMA (human, UniProt Q02223 1-184); assay: flow cytometry, H929 cells; antibody has no CD28 arm
T2 construct: whole, on cells; On NCI-H929 myeloma cells, which also carry CD28; also called B-cell maturation antigen; TNFRSF17
T2 sequence (looked up): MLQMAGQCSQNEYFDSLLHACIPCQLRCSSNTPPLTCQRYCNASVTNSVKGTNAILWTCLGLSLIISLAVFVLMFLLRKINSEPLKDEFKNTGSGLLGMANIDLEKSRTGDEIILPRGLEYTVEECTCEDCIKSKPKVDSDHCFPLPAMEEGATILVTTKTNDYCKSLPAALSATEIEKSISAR

[3] = target: T1, T cell receptor Vβ17 on human T cells; assay: flow cytometry, human pan T cells, donor 2; antibody has no CD28 arm
[4] = target: T3, CD28 (human, UniProt P10747 19-220); assay: flow cytometry, human pan T cells
T3 construct: whole, on cells; On human pan T cells and on H929 myeloma cells; the assay field says which; also called Cluster of Differentiation 28
Protocol: Post Pan T cell isolation. 0.1×10⁶ cells were seeded per well of a 96 well V-bottom plate. Cells were stained with the fixable violet live/dead stain (L34955, Thermofisher) for 20 mins on ice in dark according to the manufacturer's protocol. Post staining cells were washed with FACS buffer (PBS+2% FBS) by spinning at 1500 rpm for 5 mins. Supernatant was discarded and cells were suspended in 100 μl the respective antibody dilutions with a starting concentration of 5 g/ml and 3-fold serial dilutions. Antibody dilutions were prepared in FACS buffer. Cells were incubated with the antibody dilutions for 30 mins at 37° C. At the end of the incubation period, cells were washed twice with FACS buffer as above followed by staining with PE conjugated Goat polyclonal antibody to human IgG (ab98596, Abcam) at a 1:50 dilution in FACS buffer. Cells were incubated with the secondary antibody for 30 mins on ice. At the end of incubation period the cells were washed with FACS buffer as above. […] Cells were pelleted and resuspended in FACS buffer for acquisition on the NOVOCYTE flow cytometer (ACEA Biosciences). For binding assays using the H929 cells, 0.1×10⁶ H929 cells were seeded per well of a 96 well V-bottom plate and stained as above. Samples were analyzed by gating on the live cells and percentage binding was obtained by subtracting the background fluorescence from the secondary only control. […]

[5] = target: T2, BCMA; assay: flow cytometry, H929 cells (BCMA+, CD28+); whole-cell EC50, antibody has BCMA and CD28 arms
Protocol: Post Pan T cell isolation. 0.1×10⁶ cells were seeded per well of a 96 well V-bottom plate. Cells were stained with the fixable violet live/dead stain (L34955, Thermofisher) for 20 mins on ice in dark according to the manufacturer's protocol. Post staining cells were washed with FACS buffer (PBS+2% FBS) by spinning at 1500 rpm for 5 mins. Supernatant was discarded and cells were suspended in 100 μl the respective antibody dilutions with a starting concentration of 5 g/ml and 3-fold serial dilutions. Antibody dilutions were prepared in FACS buffer. Cells were incubated with the antibody dilutions for 30 mins at 37° C. At the end of the incubation period, cells were washed twice with FACS buffer as above followed by staining with PE conjugated Goat polyclonal antibody to human IgG (ab98596, Abcam) at a 1:50 dilution in FACS buffer. Cells were incubated with the secondary antibody for 30 mins on ice. At the end of incubation period the cells were washed with FACS buffer as above. […] Cells were pelleted and resuspended in FACS buffer for acquisition on the NOVOCYTE flow cytometer (ACEA Biosciences). For binding assays using the H929 cells, 0.1×10⁶ H929 cells were seeded per well of a 96 well V-bottom plate and stained as above. Samples were analyzed by gating on the live cells and percentage binding was obtained by subtracting the background fluorescence from the secondary only control.

[6] = target: T3, CD28; assay: as above
[7] = target: T2, BCMA; assay: as above; remark: listed apart in the source
[8] = target: T3, CD28; assay: as above; remark: listed apart in the source
[9] = target: T3, CD28; assay: flow cytometry, human pan T cells, donor 2
[10] = target: T3, CD28; assay: flow cytometry, human pan T cells, donor 1
[11] = target: T4, PSMA (human, UniProt Q04609 1-750); assay: flow cytometry, LnCaP cells
T4 construct: whole, on cells; On LnCaP and C4-2B cells; also called prostate-specific membrane antigen

[12] = target: T3, CD28; assay: flow cytometry, human pan T cells, donor 1; remark: listed apart in the source
Protocol: (§1) Binding assay. […] Post Pan T cell isolation. 0.1×10⁶ cells were seeded per well of a 96 well V-bottom plate. Cells were stained with the fixable violet live/dead stain (L34955, Thermofisher) for 20 mins on ice in dark according to the manufacturer's protocol. Post staining cells were washed with FACS buffer (PBS+2% FBS) by spinning at 1500 rpm for 5 mins. Supernatant was discarded and cells were suspended in 100 μl the respective antibody dilutions with a starting concentration of 5 g/ml and 3-fold serial dilutions. Antibody dilutions were prepared in FACS buffer. Cells were incubated with the antibody dilutions for 30 mins at 37° C. At the end of the incubation period, cells were washed twice with FACS buffer as above followed by staining with PE conjugated Goat polyclonal antibody to human IgG (ab98596, Abcam) at a 1:50 dilution in FACS buffer. Cells were incubated with the secondary antibody for 30 mins on ice. At the end of incubation period the cells were washed with FACS buffer as above. […] Cells were pelleted and resuspended in FACS buffer for acquisition on the NOVOCYTE flow cytometer (ACEA Biosciences). […] Samples were analyzed by gating on the live cells and percentage binding was obtained by subtracting the background fluorescence from the secondary only control.

[13] = target: T3, CD28; assay: flow cytometry, human pan T cells, donor 2; remark: listed apart in the source
Protocol: as §1

[14] = target: T4, PSMA; assay: flow cytometry, C4-2B cells
[15] = target: T3, CD28; assay: flow cytometry, H929 cells; antibody has no BCMA arm

T1 sequence (A0A075B6N1 22-114): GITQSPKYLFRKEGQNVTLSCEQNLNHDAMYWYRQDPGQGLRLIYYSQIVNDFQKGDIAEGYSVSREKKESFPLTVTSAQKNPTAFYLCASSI
T4 sequence (Q04609 whole entry): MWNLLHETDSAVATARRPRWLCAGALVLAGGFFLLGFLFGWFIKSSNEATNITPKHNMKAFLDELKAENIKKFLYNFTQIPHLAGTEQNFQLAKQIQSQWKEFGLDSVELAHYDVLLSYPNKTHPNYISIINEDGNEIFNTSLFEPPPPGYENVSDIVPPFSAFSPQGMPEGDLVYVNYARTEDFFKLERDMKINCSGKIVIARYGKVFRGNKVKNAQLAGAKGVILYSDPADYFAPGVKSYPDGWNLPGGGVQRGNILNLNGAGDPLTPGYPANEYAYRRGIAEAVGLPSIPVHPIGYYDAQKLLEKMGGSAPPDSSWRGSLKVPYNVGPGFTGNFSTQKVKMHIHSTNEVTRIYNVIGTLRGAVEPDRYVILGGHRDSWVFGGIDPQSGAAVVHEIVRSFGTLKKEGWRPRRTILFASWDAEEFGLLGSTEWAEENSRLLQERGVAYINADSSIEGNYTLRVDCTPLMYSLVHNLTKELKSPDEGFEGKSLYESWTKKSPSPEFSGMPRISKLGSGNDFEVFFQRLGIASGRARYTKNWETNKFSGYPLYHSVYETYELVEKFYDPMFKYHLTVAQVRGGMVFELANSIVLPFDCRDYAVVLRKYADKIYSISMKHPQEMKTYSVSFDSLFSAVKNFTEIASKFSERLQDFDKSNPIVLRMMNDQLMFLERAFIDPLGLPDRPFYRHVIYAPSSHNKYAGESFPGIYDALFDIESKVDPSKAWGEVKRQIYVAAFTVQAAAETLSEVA

B1: VB28B40 (bispecific antibody, human IgG1, kappa, L234A L235A)
scFv: DIQMTQSPSSLSASVGDRVTITCRSSQSLVHSSGNTYLHWYQQKPGKAPKFLIYKVSNRFSGVPSRFSGSGSGTDFTLTISSLQPEDFATYYCSQSTHVPFTFGQGTKLEIKGGSEGKSSGSGSESKSTGGSQVQLQESGPGLVKPSETLSLTCTVSGYSITSGYFWNWIRQPPGKGLEWIGYISYDGSNNYNPSLKSRVTISRDTSKNQFSLKLSSVTAADTAVYYCASPSPGTGYAVDYWGQGTLVTVSSEPKSSDKTHTCPPCPAPEAAGGPSVFLFPPKPKDTLMISRTPEVTCVVVSVSHEDPEVKFNWYVDGVEVHNAKTKPREEQYNSTYRVVSVLTVLHQDWLNGKEYKCKVSNKALPAPIEKTISKAKGQPREPQVYTLPPSREEMTKNQVSLWCLVKGFYPSDIAVEWESNGQPENNYKTTPPVLDSDGSFFLYSKLTVDKSRWQQGNVFSCSVMHEALHNHYTQKSLSLSPGK
heavy: not shown
light: not shown
notes: Vβ17 × null × BCMA, human IgG1; not used; also called Vβ28B40
Binder B1 has an EC50 [1] of 1.12 µg/mL, an EC50 [2] of 0.121 µg/mL and an EC50 [3] of 1.21 µg/mL.

B2: VB28B7 (bispecific antibody)
heavy 1: not shown
light 1: DIQMTQSPASLSASVGETVTITCGASENIYGSLNWYQRKQGKSPQLLIYGATNLADGMSSRFSGSGSGRQFSLKISSLHPDDVATYYCQNLLSTPYTFGGGTKLELKRTVAAPSVFIFPPSDEQLKSGTASVVCLLNNFYPREAKVQWKVDNALQSGNSQESVTEQDSKDSTYSLSSTLTLSKADYEKHKVYACEVTHQGLSSPVTKSFNRGEC
heavy 2: not shown
light 2: B2 light 1
notes: also called Vβ28B7; C28B19 × Null × BCMB519
In the case of B2, the EC50 [4] is reported as 0.06 µg/mL, the EC50 [5] is reported as 0.1 µg/mL and the EC50 [6] is reported as 0.1 µg/mL.

B3: VB28B38 (bispecific antibody, human IgG1, kappa, L234A L235A)
scFv: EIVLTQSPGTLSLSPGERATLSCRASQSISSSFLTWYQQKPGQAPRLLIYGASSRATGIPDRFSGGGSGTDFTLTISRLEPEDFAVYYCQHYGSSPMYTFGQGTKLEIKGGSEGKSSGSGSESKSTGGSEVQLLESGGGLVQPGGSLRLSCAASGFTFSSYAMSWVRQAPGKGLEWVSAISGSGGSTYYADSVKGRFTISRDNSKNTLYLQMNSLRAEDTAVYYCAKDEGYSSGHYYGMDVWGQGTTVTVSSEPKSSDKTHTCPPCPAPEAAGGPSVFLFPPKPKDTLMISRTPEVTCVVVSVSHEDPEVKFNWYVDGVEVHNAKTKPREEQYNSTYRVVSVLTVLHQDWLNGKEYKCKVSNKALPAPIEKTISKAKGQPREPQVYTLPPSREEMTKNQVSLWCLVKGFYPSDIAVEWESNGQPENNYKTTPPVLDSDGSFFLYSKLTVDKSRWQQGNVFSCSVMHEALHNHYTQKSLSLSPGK
heavy: QVQLQQPGSELVRPGASVKLSCKASGYTFTSYWMHWVKQRHGQGLEWIGNIYPGSGRTNYDEKFKSKGTLTVDTSSRTAYMHLSSLTSEDSAVYYCTREHYGSNSHPMDYWGQGTSVTVSSASTKGPSVFPLAPSSKSTSGGTAALGCLVKDYFPEPVTVSWNSGALTSGVHTFPAVLQSSGLYSLSSVVTVPSSSLGTQTYICNVNHKPSNTKVDKKVEPKSCDKTHTCPPCPAPEAAGGPSVFLFPPKPKDTLMISRTPEVTCVVVSVSHEDPEVKFNWYVDGVEVHNAKTKPREEQYNSTYRVVSVLTVLHQDWLNGKEYKCKVSNKALPAPIEKTISKAKGQPREPQVYTLPPSREEMTKNQVSLSCAVKGFYPSDIAVEWESNGQPENNYKTTPPVLDSDGSFFLVSKLTVDKSRWQQGNVFSCSVMHEALHNRFTQKSLSLSPGK
light: B2 light 1
notes: BCMA × CD28, human IgG1; also called Vβ28B38
B3 gave an EC50 [7] of under 0.0046 µg/mL, an EC50 [8] of under 0.0046 µg/mL and an EC50 [9] of 1.08 µg/mL. The EC50 [10] was 1.27 µg/mL.

B4: VB28B31 (bispecific antibody, human IgG1, kappa, L234A L235A)
scFv: not shown
heavy: B3 heavy
light: B2 light 1
notes: PSMA × CD28, human IgG1; also called Vβ28B31
B4 showed an EC50 [11] of 0.15 µg/mL, an EC50 [12] of 1.29 µg/mL and an EC50 [13] of 0.95 µg/mL. The EC50 [14] was 1.22 µg/mL.

B5: B17B619 (bispecific antibody, human IgG1)
heavy: QVQLQESGPGLVKPSETLSLTCTVSGYSITSGYFWNWIRQPPGKGLEWIGYISYDGSNNYNPSLKSRVTISRDTSKNQFSLKLSSVTAADTAVYYCASPSPGTGYAVDYWGQGTLVTVSSASTKGPSVFPLAPSSKSTSGGTAALGCLVKDYFPEPVTVSWNSGALTSGVHTFPAVLQSSGLYSLSSVVTVPSSSLGTQTYICNVNHKPSNTKVDKKVEPKSCDKTHTCPPCPAPEAAGGPSVFLFPPKPKDTLMISRTPEVTCVVVSVSHEDPEVKFNWYVDGVEVHNAKTKPREEQYNSTYRVVSVLTVLHQDWLNGKEYKCKVSNKALPAPIEKTISKAKGQPREPQVYVYPPSREEMTKNQVSLTCLVKGFYPSDIAVEWESNGQPENNYKTTPPVLDSDGSFALVSKLTVDKSRWQQGNVFSCSVMHEALHNRFTQKSLSLSPG
light: DIQMTQSPSSLSASVGDRVTITCRSSQSLVHSSGNTYLHWYQQKPGKAPKFLIYKVSNRFSGVPSRFSGSGSGTDFTLTISSLQPEDFATYYCSQSTHVPFTFGQGTKLEIKRTVAAPSVFIFPPSDEQLKSGTASVVCLLNNFYPREAKVQWKVDNALQSGNSQESVTEQDSKDSTYSLSSTLTLSKADYEKHKVYACEVTHQGLSSPVTKSFNRGEC
scFv-Fc: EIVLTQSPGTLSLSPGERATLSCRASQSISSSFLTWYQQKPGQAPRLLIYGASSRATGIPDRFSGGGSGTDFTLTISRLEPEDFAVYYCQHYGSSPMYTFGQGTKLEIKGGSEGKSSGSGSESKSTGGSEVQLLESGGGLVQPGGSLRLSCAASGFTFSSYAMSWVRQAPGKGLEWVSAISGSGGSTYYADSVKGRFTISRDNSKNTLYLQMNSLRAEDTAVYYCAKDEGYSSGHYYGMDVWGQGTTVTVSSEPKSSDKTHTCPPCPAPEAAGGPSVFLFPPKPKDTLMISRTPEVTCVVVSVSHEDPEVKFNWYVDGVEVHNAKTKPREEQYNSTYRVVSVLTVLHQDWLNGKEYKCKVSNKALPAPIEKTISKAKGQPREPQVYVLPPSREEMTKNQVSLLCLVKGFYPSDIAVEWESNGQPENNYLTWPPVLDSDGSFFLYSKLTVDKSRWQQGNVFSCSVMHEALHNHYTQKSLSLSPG
notes: Human IgG1; also called Vβ17-Fab×BCMA-ScFv; Vb17-B17B21-N33S-Fab-RF × BCMB519-LH-scFv; copies: 1 + 1 + 1
With B5 the EC50 [1] was 0.159 µg/mL, the EC50 [2] was 0.122 µg/mL and the EC50 [3] was 0.124 µg/mL.

B6: VB28B33 (bispecific antibody)
scFv: not shown
heavy: B3 heavy
light: DIQMTQSPSSLSASVGDRVTITCRSSQSLVHSSGNTYLHWYQQKPGKAPKFLIYKVSNRFSGVPSRFSGSGSGTDFTLTISSLQPEDFATYYCSQSTHVPFTFGQGTKLEIKGGSEGKSSGSGSESKSTGGSQVQLQESGPGLVKPSETLSLTCTVSGYSITSGYFWNWIRQPPGKGLEWIGYISYDGSNNYNPSLKSRVTISRDTSKNQFSLKLSSVTAADTAVYYCASPSPGTGYAVDYWGQGTLVTVSSGGSEGKSSGSGSESKSTGGSDIQMTQSPASLSASVGETVTITCGASENIYGSLNWYQRKQGKSPQLLIYGATNLADGMSSRFSGSGSGRQFSLKISSLHPDDVATYYCQNLLSTPYTFGGGTKLELKRTVAAPSVFIFPPSDEQLKSGTASVVCLLNNFYPREAKVQWKVDNALQSGNSQESVTEQDSKDSTYSLSSTLTLSKADYEKHKVYACEVTHQGLSSPVTKSFNRGEC
notes: Null × CD28 × Vβ17, human IgG1; also called Vβ28B33
With B6 the EC50 [15] was 1.4 µg/mL, the EC50 [9] was over 10 µg/mL and the EC50 [13] was over 10 µg/mL.

B7: VB28B36 (bispecific antibody)
scFv: not shown
heavy: B3 heavy
light: not shown
notes: Null × CD28 × BCMA, human IgG1; also called Vβ28B36
B7 was tested, and the EC50 [7] was under 0.0046 µg/mL and the EC50 [8] was under 0.0046 µg/mL.
